Laboratory results taken from patent US10578620B2, “Methods for detecting molecules in a sample” (The Francis Crick Institute Limited, priority 2013, dated 2020).

System: pT308 (Akt phosphorylation)
Test: Two-site TSA-FRET for pT308 in FFPE human breast tumour, CIP specificity control
Protocol: TSA-FRET assay for quantification of pT308 was performed on 4-μm sections of two identical FFPE-fixed breast cancer tissue samples.
Following de-waxing and rehydration, sections were subjected to heat antigen retrieval by microwaving in TRIS-EDTA (pH 9.0) buffer, for 10 minutes at 800 W. Sections were then incubated in freshly prepared sodium borohydrate (1 mg/ml in PBS) buffer for 10 min at RT, followed by blocking with 1% BSA/PBS. Tissues sections were incubated with peroxidase suppressor (Thermo Scientific Pierce) for 15 min.
For the two-site TSAFRET assay, the first slide was incubated with mouse anti-panAkt (1:100), and the second slide with mouse anti-panAkt (1:100) and rabbit anti-pT308 (1:200) primary antibodies, for 16 hours at 4° C. The first slide was further immunolabeled with ORG488-conjugated anti-mouse Fab fragment secondary antibody (20 μg/ml). The second slide was immunolabeled with ORG488-conjugated anti-mouse Fab fragment (20 μg/ml) and HRP-conjugated anti-rabbit Fab fragment secondary antibody (10 μg/ml), which was detected by using Alexa-594-TSA assay. […]
The donor lifetimes of ORG488 were determined from at least 10 ROIs of the tumours, each performed in triplicate unless otherwise indicated. The FRET efficiency was calculated as described above (FIG. 4(a)-(c)).

B1: calf intestinal alkaline phosphatase (protein, UniProt P19111 20-506, looked up)
Intestinal-type alkaline …: LVPVEEEDPAFWNRQAAQALDVAKKLQPIQTAAKNVILFLGDGMGVPTVTATRILKGQMNGKLGPETPLAMDQFPYVALSKTYNVDRQVPDSAGTATAYLCGVKGNYRTIGVSAAARYNQCKTTRGNEVTSVMNRAKKAGKSVGVVTTTRVQHASPAGAYAHTVNRNWYSDADLPADAQMNGCQDIAAQLVNNMDIDVILGGGRKYMFPVGTPDPEYPDDASVNGVRKRKQNLVQAWQAKHQGAQYVWNRTALLQAADDSSVTHLMGLFEPADMKYNVQQDHTKDPTLQEMTEVALRVVSRNPRGFYLFVEGGRIDHGHHDDKAYMALTEAGMFDNAIAKANELTSELDTLILVTADHSHVFSFGGYTLRGTSIFGLAPSKALDSKSYTSILYGNGPGYALGGGSRPDVNDSTSEDPSYQQQAAVPQASETHGGEDVAVFARGPQAHLVHGVEEETFVAHIMAFAGCVEPYTDCNLPAPTTATSIPD
notes: phosphatase used as control to verify FRET signal is due to Akt phosphorylation
CIP 10 units/slide 30 min, untreated Ef=6.0
  FRET efficiency (Ef) of panAkt+pT308 in CIP-treated tumour samples: 1.5%
FIG. 4(c), p<0.0001
  change of FRET efficiency of the panAkt+pT308 signal in the CIP-treated condition: reduction
